Results published in patent US20220259593A1, “CONTROL OF MAMMALIAN GENE DOSAGE USING CRISPR” (The Regents of the University of California, priority 2019, published 2022).
Changes are numbered by the printed parent chain.

B1: cr333 (nucleic acid)
guide: GTTTAAGAGCTAAGCTGGAAACAGCATAGCAAGTTTAAATAAGGCTAGTCCGTTATCAAGGTGAAAACCTGGCACCGAGTCGGTGCT
modifications: listed as DNA, chemistry not fully specified
B2: cr156 (nucleic acid)
guide: B1 guide with G60C, G61T, T62A, A67T, C68A, C69G
modifications: listed as DNA, chemistry not fully specified
B3: cr534 (nucleic acid)
guide: B1 guide with C45T, G48A, G60C, G61T, C68A, C69G, G72A, C86T
modifications: listed as DNA, chemistry not fully specified
B4: cr363 (nucleic acid)
guide: B1 guide with G60T, G61T, T62C, A67G, C68A, C69A
modifications: listed as DNA, chemistry not fully specified
B5: cr604 (nucleic acid)
guide: B1 guide with T46A, G60C, G61T, A65C, C68A, C69G
modifications: listed as DNA, chemistry not fully specified
B6: cr698 (nucleic acid)
guide: B1 guide with G29A, T54A, G60C, G61T, A64T, C68A, C69G
modifications: listed as DNA, chemistry not fully specified
B7: cr155 (nucleic acid)
guide: B1 guide with G60T, G61T, T62G, A67C, C68A, C69A, C75T, G83A
modifications: listed as DNA, chemistry not fully specified
B8: cr656 (nucleic acid)
guide: B1 guide with G60C, G61T, C68A, C69G, A74C, T84G
modifications: listed as DNA, chemistry not fully specified
B9: cr945 (nucleic acid)
guide: B1 guide with G60C, G61T, A66G, C68A, C69G, G79T
modifications: listed as DNA, chemistry not fully specified
B10: cr774 (nucleic acid)
guide: B1 guide with A20C, G60C, G61T, C68A, C69G
modifications: listed as DNA, chemistry not fully specified
B11: cr128 (nucleic acid)
guide: B1 guide with A59G, G60C, G61T, C68A, C69G, T70C, C76A, G82T
modifications: listed as DNA, chemistry not fully specified
B12: cr851 (nucleic acid)
guide: B1 guide with A59G, G60C, G61T, C68A, C69G, T70C, G77A, C81T
modifications: listed as DNA, chemistry not fully specified
B13: cr789 (nucleic acid)
guide: B1 guide with G60C, G61T, C68A, C69G, G72C, C86G
modifications: listed as DNA, chemistry not fully specified
B14: cr722 (nucleic acid)
guide: B1 guide with G60C, G61T, A65G, C68A, C69G, A74C, T84G
modifications: listed as DNA, chemistry not fully specified
B15: cr839 (nucleic acid)
guide: B1 guide with G60C, G61T, A65G, C68A, C69G
modifications: listed as DNA, chemistry not fully specified
B16: cr923 (nucleic acid)
guide: B1 guide with G60C, G61T, C68A, C69G, G72A, A74C, T84G, C86T
modifications: listed as DNA, chemistry not fully specified
B17: cr968 (nucleic acid)
guide: B1 guide with G60C, G61T, C68A, C69G, C73A, G85T
modifications: listed as DNA, chemistry not fully specified
B18: cr269 (nucleic acid)
guide: B1 guide with G60C, G61T, C68A, C69G, G72C, C73A, G85T, C86G
modifications: listed as DNA, chemistry not fully specified
B19: cr232 (nucleic acid)
guide: B1 guide with T27C, G60C, G61T, C68A, C69G
modifications: listed as DNA, chemistry not fully specified
B20: cr956 (nucleic acid)
guide: B1 guide with T46A, G60C, G61T, C68A, C69G
modifications: listed as DNA, chemistry not fully specified
B21: cr023 (nucleic acid)
guide: B1 guide with A8G, G60C, G61T, C68A, C69G
modifications: listed as DNA, chemistry not fully specified
B22: cr666 (nucleic acid)
guide: B1 guide with C45T, G48A, G60C, G61T, C68A, C69G, C73A, A74G, T84C, G85T
modifications: listed as DNA, chemistry not fully specified
B23: cr393 (nucleic acid)
guide: B1 guide with G60C, G61T, A65C, C68A, C69G, G79A
modifications: listed as DNA, chemistry not fully specified
B24: cr489 (nucleic acid)
guide: B1 guide with G60C, G61T, A65G, C68A, C69G, C73G, G85C
modifications: listed as DNA, chemistry not fully specified
B25: cr893 (nucleic acid)
guide: B1 guide with G60C, G61T, C68A, C69G, C86T
modifications: listed as DNA, chemistry not fully specified
B26: cr392 (nucleic acid)
guide: B1 guide with A32T, G60C, G61T, A65T, C68A, C69G
modifications: listed as DNA, chemistry not fully specified
B27: cr947 (nucleic acid)
guide: B1 guide with A19G, G60C, G61T, C68A, C69G
modifications: listed as DNA, chemistry not fully specified
B28: cr672 (nucleic acid)
guide: B1 guide with G60C, G61T, C68A, C69G, C75T
modifications: listed as DNA, chemistry not fully specified
B29: cr446 (nucleic acid)
guide: B1 guide with C45T, G48A, A59T, G60C, G61T, C68A, C69G, T70A, C73G, G85C
modifications: listed as DNA, chemistry not fully specified
B30: cr713 (nucleic acid)
guide: B1 guide with G60C, G61T, T62A, A65G, A67T, C68A, C69G
modifications: listed as DNA, chemistry not fully specified
B31: cr636 (nucleic acid)
guide: B1 guide with G60C, G61T, A64G, A65T, C68A, C69G
modifications: listed as DNA, chemistry not fully specified
B32: cr152 (nucleic acid)
guide: B1 guide with G60C, G61T, C68A, C69G, G72A, C73A, G85T, C86T
modifications: listed as DNA, chemistry not fully specified
B33: cr139 (nucleic acid)
guide: B1 guide with G60C, G61T, C68A, C69G, C75A, G83T
modifications: listed as DNA, chemistry not fully specified
B34: cr932 (nucleic acid)
guide: B1 guide with C30T, G60C, G61T, C68A, C69G
modifications: listed as DNA, chemistry not fully specified
B35: cr145 (nucleic acid)
guide: B1 guide with G60C, G61T, A65T, C68A, C69G
modifications: listed as DNA, chemistry not fully specified
B36: cr172 (nucleic acid)
guide: B1 guide with A47T, G60C, G61T, A64T, C68A, C69G
modifications: listed as DNA, chemistry not fully specified
B37: cr195 (nucleic acid)
guide: B1 guide with G60C, G61T, A64C, C68A, C69G, G79T
modifications: listed as DNA, chemistry not fully specified
B38: cr653 (nucleic acid)
guide: B1 guide with G60C, G61T, C68A, C69G, C76A, G82T
modifications: listed as DNA, chemistry not fully specified
B39: cr901 (nucleic acid)
guide: B1 guide with G60C, G61T, A66G, C68A, C69G
modifications: listed as DNA, chemistry not fully specified
B40: cr321 (nucleic acid)
guide: B1 guide with A31C, G60C, G61T, C68A, C69G
modifications: listed as DNA, chemistry not fully specified
B41: cr995: original, un-modified sgRNA constant region sequence (nucleic acid)
guide: B1 guide with G60C, G61T, C68A, C69G
modifications: listed as DNA, chemistry not fully specified

test system: K562 CRISPRi cells; assay: Constant region variant library pooled growth screen, K562; format: cell-based, human; conditions: sgRNA constant region variants; activity relative to the original, un-modified constant region cr995
Procedure, shortened: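 K562 CRISPRi, duplicate transductions; puromycin 1 d 0.75 μg/mL then 1 d 0.85 μg/mL; >2000× coverage in spinner flasks; harvests at 4-8 d growth. Activity = phenotype ÷ phenotype with unmodified constant region.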

B1 and B2 are the same in Mean relative activity: 1.072 for the first, 1.072 for the second.

Compared with B3, B4 is higher in Mean relative activity: 1.069 for the first, 1.07 for the second.

same assay, conditions: sgRNA constant region variants; relative to the original, un-modified constant region cr995 (= 1)

First: B5
Second: B6
The Mean relative activity of the first is lower: 0.9912 for the first, 0.9956 for the second.

Going from B7 to B8, the Mean relative activity rises from 1.003 to 1.004.

First: B9
Second: B10
The Mean relative activity of the first is higher: 1.002 for the first, 0.9968 for the second.

B11 and B12 are the same in Mean relative activity: 1.002 for the first, 1.002 for the second.

Compared with B13, B14 is higher in Mean relative activity: 0.9955 for the first, 1.001 for the second.

Compared with B15, B16 is higher in Mean relative activity: 0.9918 for the first, 1.002 for the second.

First: B17
Second: B18
The Mean relative activity of the first is higher: 1.004 for the first, 0.9979 for the second.

Going from B19 to B20, the Mean relative activity falls from 1.006 to 0.9983.

Compared with B21, B22 is higher in Mean relative activity: 0.9917 for the first, 0.996 for the second.

Going from B23 to B24, the Mean relative activity falls from 1.004 to 0.9991.

Compared with B25, B26 is higher in Mean relative activity: 0.9932 for the first, 0.9999 for the second.

Compared with B27, B28 is higher in Mean relative activity: 0.9997 for the first, 1.005 for the second.

Compared with B29, B30 is higher in Mean relative activity: 0.9926 for the first, 0.9979 for the second.

First: B31
Second: B32
The Mean relative activity of the first is lower: 0.992 for the first, 0.9971 for the second.

Going from B33 to B34, the Mean relative activity falls from 1.006 to 0.9947.

Compared with B35, B36 is higher in Mean relative activity: 0.9925 for the first, 0.9996 for the second.

Compared with B37, B38 is lower in Mean relative activity: 0.9986 for the first, 0.9907 for the second.

Compared with B39, B40 is lower in Mean relative activity: 1.003 for the first, 0.9906 for the second.

For B41, the Mean relative activity was 1.
